B1: Tyrosine-protein kinase YwqD (Bacillus subtilis), P96716 (parent)
chain: MALRKNRGSRMQRNVIAMTEPKSLNSEQYRTIRTNIEFASVDRQMKSVMITSACPGEGKSTTAANLAVVFAQQGKKVLLIDADLRKPTVHTAFFLENTVGLTSVLLKKSSMEQAVQASNEKHLDVLTSGPIPPNPAELLSSKWMKELAYEACAAYDMVIFDTPPILAVADAQILGNVADGSVLVISSGKTEKEQAAKAKEALATCKSKLLGAIMNGKKLSKHSEYGYYGTKDNFMQK
partner: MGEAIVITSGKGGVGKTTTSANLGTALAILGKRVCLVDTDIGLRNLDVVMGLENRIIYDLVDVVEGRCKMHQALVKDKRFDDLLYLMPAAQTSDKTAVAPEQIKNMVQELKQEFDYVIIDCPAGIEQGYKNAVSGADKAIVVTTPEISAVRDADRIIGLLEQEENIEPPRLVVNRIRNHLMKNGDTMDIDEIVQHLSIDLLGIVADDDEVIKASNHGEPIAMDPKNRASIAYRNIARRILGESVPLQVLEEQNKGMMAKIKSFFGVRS

Variants of: B1
Conditions: with mind_bacsu minD

Row | Variant | effect of a mutation on the interaction
1 | K59M | disrupting interaction strength
2 | D81A | decreasing interaction strength

Source: IntAct's records for PubMed 25374563
